# Target: ErbB2 (UniProt P04626)
substance,measurement,value
Src,"Src activity (Src kinase assay, Src-Y416 phosphorylation) after trastuzumab treatment",trastuzumab inhibited Src activity in ErbB2 overexpressing cells

# Reference: patent publication US20190360057
